In US20180251559A1, “Methods for the Modulation of LGALS3BP to Treat Systemic Lupus Erythematosus” (Merck Patent GmbH, priority 2015, published 2018):

Tests used:
Assay type in all cases: cell-based
[1] = test system: primary human B cells; assay: Viability of TLR7 agonist-stimulated B cells (CellTiter-Glo, ATP); conditions: for IC50: pre-incubated 30 minutes, TLR7 agonist for 5 days, CellTiter-Glo
Procedure: (§1) A library of conditioned cell culture supernatants with secreted proteins was added and IgG secretion and cell viability (CTG, CellTiter-Glo) measured at the end of culture.
B cell viability was measured 5 days later by CellTiter-Glo.
(§2) To identify secreted proteins that affect IgG production by B cells a selection of proteins from the human secretome in an IgG secretion assay were screened using primary human B cells. B cells from healthy volunteers were exposed to 1400 recombinantly expressed secreted proteins before activation with a TLR7 small molecule agonist. After 5 days IgG was measured to identify proteins that enhance or inhibit IgG secretion. […] LGALS3BP was independently identified as the most differentially regulated gene in blood from lupus nephritis patients compared to healthy volunteers.
(§3) Primary B cells from healthy human donors were stimulated in the presence of galectin-3 inhibitors in order to determine if galectin-3 plays a role in the function of LGALS3BP in B cell biology. Specifically, freshly isolated B cells from healthy volunteers were pre-incubated with galectin-3 (Gal-3) inhibitors for 30 minutes before stimulation with TLR7 agonist for 5 days. Supernatants were harvested and IgG measured by AlphaLISA. Cell viability was measured by CellTiter-Glo (ATP production).

[2] = test system: primary human B cells; assay: IgG secretion by stimulated primary human B cells (AlphaLISA); conditions: for IC50: pre-incubated 30 minutes, TLR7 agonist for 5 days, AlphaLISA, read-out: IgG production
Procedure: as §1
IgG was measure by AlphaLISA 5 days after stimulation.
FIG. 3A-1 and FIG. 3A-2 show data from isolated primary human B cells that were stimulated with small molecule TLR7 agonist in the presence of potential LGALS3BP inhibitors and controls (left). Anti-LGALS3BP antibody was added to primary human B cells activated with CpG or anti-IgM/CD40L/CpG (right). IgG secretion was measured 5 days later by AlphaLISA.
as §2
(§4) The effect of anti-LGALS3BP antibodies on IgG secretion by primary human B cells was evaluated. IgG secretion by TLR7 activated B cells was inhibited by almost 90% in presence of anti-LGALS3BP antibody or anti-LGALS3BP F(ab′)2 (74%) to exclude inhibition through FcγRIIb present on B cells (FIGS. 3A-1 and 3A-2). […] The same inhibitory effect of the LGALS3BP antibody was observed when B cells were activated with CpG (94%) or anti-IgM/CD40L/CpG (77%). IgM secretion was inhibited by antibody blockade as well excluding a role of LGALS3BP in isotype switching (FIG. 3B-1, FIG. 3B-2 and FIG. 3B-3). […] IL-6 secretion was measured to investigate if LGALS3BP blockade interferes with TLR7 activation and signaling thereby reducing B cell proliferation. A 37% decrease in IL-6 production was observed 48 h after B cell stimulation in the presence of anti-LGALS3BP antibody. This reduction was LGALS3BP specific and not mediated through FcγRIIb given the same effect was measured in the presence of Fc block or with anti-LGALS3BP F(ab′)2. Lactose also had the same effect, thereby, excluding a direct effect of the antibody through cross-linking the surface-bound protein. […] To test if anti-LGALS3BP antibodies reduce B cell survival by blocking B cell activation CD69 upregulation was measured 16 h after activation with TLR7 agonist (FIG. 3C-1, FIG. 3C-2 and FIG. 3C-3). No difference in percentage of CD69^+ activated cells or expression levels of CD69 was observed when an anti-LGALS3BP antibody was added. LGALS3BP blockade inhibits IgG secretion independent of the stimulation protocol used. To determine if LGALS3BP blockade has an effect on B cell survival in the absence of stimulation additional experiments were conducted. Adding the antibody to non-stimulated B cells reduced viability by 66% (FIG. 3D-1 and FIG. 3D-2). This effect was most pronounced in B cells.
as §3

[3] = test system: primary human B cells; assay: IL-6 secretion by TLR7 agonist-activated B cells (AlphaLISA); conditions: 48 h after B cell stimulation with TLR7 agonist
Procedure: IL-6 secretion was measured 2 days after stimulation by AlphaLISA.
as §4, with “F(ab′)2.” for “F(ab′)2. Lactose also had the same effect, thereby, excluding a direct effect of the antibody through cross-linking the surface-bound protein.”, “No difference in percentage of CD69^+ activated cells or expression levels of CD69 was observed when an anti-LGALS3BP antibody was added. LGALS3BP blockade inhibits IgG secretion independent of the stimulation protocol used. To determine if LGALS3BP blockade has an effect on B cell survival in the absence of stimulation additional experiments were conducted. Adding the antibody to non-stimulated B cells reduced viability by 66% (FIG. 3D-1 and FIG. 3D-2). This effect was most pronounced in B cells.” left out

[4] = test system: primary human macrophages; assay: LGALS3BP induction in in vitro differentiated macrophages (QPCR, ELISA)
Text: Expression between samples was normalized using HPRT1 as a housekeeping gene. […] LGALS3BP has an IRF binding site consistent with regulation by type I interferons. To determine which pathways can induce LGALS3BP expression, primary human monocytes were differentiated into macrophages in vitro and subsequently were stimulated with IFN-α, IFN-γ, TLR4 agonist (LPS), TLR7/8 agonist (resiquimod) and TLR9 agonist (CpG). […] All stimuli induced secretion of IL-6.

[5] = test system: primary human B cells; assay: B cell activation, CD69 expression by flow cytometry; conditions: 16 h after stimulation with TLR7 agonist
Procedure: FIG. 2A-1 and FIG. 2A-2 show data from B cells stimulated with small molecule TLR7 agonist in the presence of increasing concentrations of purified recombinant LGALS3BP. B cell activation was measured 16 h later by flow cytometry quantifying CD69 expression.
To investigate if addition of LGALS3BP affects activation of naïve B cells CD69 expression was measured 16 h after stimulation with TLR7 agonist. All B cells had increased CD69 expression compared to non-stimulated cells but no change was seen upon addition of various concentrations of recombinant LGALS3BP (FIG. 2A-1 and FIG. 2A-2). The localization of endogenous LGALS3BP in primary human B cells with an antibody specific for LGALS3BP was then evaluated (FIG. 2b). […]
The effect of anti-LGALS3BP antibodies on IgG secretion by primary human B cells was evaluated. […] IL-6 secretion was measured to investigate if LGALS3BP blockade interferes with TLR7 activation and signaling thereby reducing B cell proliferation. […] This reduction was LGALS3BP specific and not mediated through FcγRIIb given the same effect was measured in the presence of Fc block or with anti-LGALS3BP F(ab′)2. […] To test if anti-LGALS3BP antibodies reduce B cell survival by blocking B cell activation CD69 upregulation was measured 16 h after activation with TLR7 agonist (FIG. 3C-1, FIG. 3C-2 and FIG. 3C-3). […]

Molecule: CCCO[C@@H]1O[C@H](CO)[C@@H](O[C@@H]2O[C@H](CO)[C@H](O)[C@H](O)[C@H]2O)[C@H](O)[C@H]1O [Beta n-propal lactoside, reference compound]
- IC50 [1]: > 10 µM
- IC50 [2]: > 10 µM

Molecule: CC(=O)N[C@H]1C(O)O[C@H](CO)[C@@H](O[C@@H]2O[C@H](CO)[C@H](O)[C@H](O)[C@H]2O)[C@@H]1O (stereo partly drawn) [LacNAc, N-Acetyl-D-lactosamine, N-Acetyl-D-lactosamine, reference compound]
- IC50 ([1]; Homo sapiens, B-cell): > 10 µM
- IC50 ([2]; Homo sapiens, B-cell): > 10 µM

Molecule: OC[C@H]1O[C@@H](O[C@H]2[C@H](O)[C@@H](O)C(O)O[C@@H]2CO)[C@H](O)[C@@H](O)[C@H]1O (stereo partly drawn) [Lactose, reference compound]
- inhibition of IgG secretion ([2]; TLR7 activated B cells, 5 days): 59%
- IL-6 production, effect in words [3]: same effect

Molecule: OC[C@H]1O[C@@](CO)(O[C@H]2O[C@H](CO)[C@@H](O)[C@H](O)[C@H]2O)[C@@H](O)[C@@H]1O [sucrose, reference compound]
- IgG secretion, effect in words ([2]; TLR7 activated B cells): did not inhibit IgG secretion

B1: IFN-γ: interferon used as macrophage stimulus (protein, UniProt P01579 24-161, looked up)
Interferon gamma: QDPYVKEAENLKKYFNAGHSDVADNGTLFLGILKNWKEESDRKIMQSQIVSFYFKLFKNFKDDQSIQKSVETIKEDMNVKFFNSNKKKRDDFEKLTNYSVTDLNVQRKAIHELIQVMAELSPAAKTGKRKRSQMLFRG
- secretion of the LGALS3BP protein ([4]; ELISA in supernatants, stimuli for 20 h): increased secretion
- LGALS3BP mRNA expression ([4]; QPCR, stimuli for 6 h): induced

B2: LGALS3BP: secreted scavenger receptor family protein, full length human sequence SEQ ID NO: 1; used as recombinant protein (protein, listed as Homo sapiens)
chain: MTPPRLFWVWLLVAGTQGVNDGDMRLADGGATNQGRVEIFYRGQWGTVCDNLWDLTDASVVCRALGFENATQALGRAAFGQGSGPIMLDEVQCTGTEASLADCKSLGWLKSNCRHERDAGVVCTNETRSTHTLDLSRELSEALGQIFDSQRGCDLSISVNVQGEDALGFCGHTVILTANLEAQALWKEPGSNVTMSVDAECVPMVRDLLRYFYSRRIDITLSSVKCFHKLASAYGARQLQGYCASLFAILLPQDPSFQMPLDLYAYAVATGDALLEKLCLQFLAWNFEALTQAEAWPSVPTDLLQLLLPRSDLAVPSELALLKAVDTWSWGERASHEEVEGLVEKIRFPMMLPEELFELQFNLSLYWSHEALFQKKTLQALEFHTVPFQLLARYKGLNLTEDTYKPRIYTSPTWSAFVTDSSWSARKSQLVYQSRRGPLVKYSSDYFQAPSDYRYYPYQSFQTPQHPSFLFQDKRVSWSLVYLPTIQSCWNYGFSCSSDELPVLGLTKSGGSDRTIAYENKALMLCEGLFVADVTDFEGWKAAIPSALDTNSSKSTSSFPCPAGHFNGFRTVIRPFYLTNSSGVD
- CD69 expression / percentage of CD69+ activated cells [5]: no change
- cell viability and metabolic activity (ATP measured by CellTiter-Glo assay) ([1]; secretome screen, TLR7 small molecule agonist, 5 days): doubled
- increase in IgG ([2]; purified recombinant protein, B cells stimulated with TLR9 agonist CpG): 1.9 fold
- enhanced IgG production ([2]; purified recombinant protein, TLR7 agonist, B cells from 6 healthy volunteers, 5 days): 1.6 fold
- increase in IgG ([2]; purified recombinant protein, activation cocktail with anti-IgM, CD40L and CpG): 1.2 fold
- enhanced IgG secretion ([2]; secretome screen, recombinantly expressed secreted proteins, TLR7 small molecule agonist, 5 days): 4.1 fold
